What was measured:
[1] = molecular target: BBLF1-Flag (Epstein-Barr virus)
[2] = molecular target: SDE-BBLF1-Flag (Epstein-Barr virus)

B1: BGLF2-GFP (natural protein)
chain: MASAANSSREQLRKFLNKECLWVLSDASTPQMKVYTATTAVSAVYVPQIAGPPKTYMNVTLIVLKPKKKPTYVTVYINGTLATVARPEVLFTKAVQGPHSLTLMYFGVFSDAVGEAVPVEIRGNPVVTCTDLTTAHVFTTSTAVKTVEELQDITPSEIIPLGRGGAWYAEGALYMFFVNMDMLMCCPNMPTFPSLTHFINLLTRCDNGECVTCYGAGAHVNILRGWTEDDSPGTSGTCPCLLPCTALNNDYVPITGHRALLGLMFKPEDAPFVVGLRFNPPKMHPDMSRVLQGVLANGKEVPCTAQPWTLLRFSDLYSRAMLYNCQVLKRQVLHSY
[1]
  recruitment of BGLF2-GFP to the TGN (colocalisation with TGN46) in cotransfected A7 cells, confocal microscopy (% of transfected cells): 70
[2]
  recruitment of BGLF2-GFP to the TGN (colocalisation with TGN46) in cotransfected A7 cells, confocal microscopy (% of transfected cells): 70

Source: publication PMC6993569
